Assay results: US20180298070A1, “PEPTIDE COMPOUND” (Takeda Pharmaceutical Company Limited, published 2018)
Starred links: 1 amine or outer side, 2 acyl side, 3 side chain; linkers in the order of their positions; H or OH if unused. Non-standard residues stand in square brackets, D forms with d. Groups on a side chain read outwards from the residue. Primed or numbered codes have the meaning given here. No end group written: not given here. *: point of attachment. C20 diacid = O=C(O)CCCCCCCCCCCCCCCCCCC(=O)*; γGlu = O=C(O)[C@H](CCC(=O)[*:2])N[*:1]; NMeY = CN[C@@H](Cc1ccc(O)cc1)C(=O)O; Iva = CC[C@](C)(N)C(=O)O; PEG3′ = not defined here; Aib = CC(C)(N)C(=O)O

T1: human GIPR (human), P48546
T1 chain: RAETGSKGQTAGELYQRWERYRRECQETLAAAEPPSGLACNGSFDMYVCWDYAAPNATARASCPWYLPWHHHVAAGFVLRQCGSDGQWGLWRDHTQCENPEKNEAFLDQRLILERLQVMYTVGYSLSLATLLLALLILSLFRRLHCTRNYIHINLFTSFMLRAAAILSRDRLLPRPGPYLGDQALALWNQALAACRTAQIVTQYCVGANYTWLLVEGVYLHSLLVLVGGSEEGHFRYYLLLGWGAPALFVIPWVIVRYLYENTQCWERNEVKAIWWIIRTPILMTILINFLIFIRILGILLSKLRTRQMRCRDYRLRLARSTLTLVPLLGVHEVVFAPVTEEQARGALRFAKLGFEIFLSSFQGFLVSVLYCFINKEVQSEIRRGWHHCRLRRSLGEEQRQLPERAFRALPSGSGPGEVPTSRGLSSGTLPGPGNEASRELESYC

T2: human GLP-1R (human), P43220
T2 chain: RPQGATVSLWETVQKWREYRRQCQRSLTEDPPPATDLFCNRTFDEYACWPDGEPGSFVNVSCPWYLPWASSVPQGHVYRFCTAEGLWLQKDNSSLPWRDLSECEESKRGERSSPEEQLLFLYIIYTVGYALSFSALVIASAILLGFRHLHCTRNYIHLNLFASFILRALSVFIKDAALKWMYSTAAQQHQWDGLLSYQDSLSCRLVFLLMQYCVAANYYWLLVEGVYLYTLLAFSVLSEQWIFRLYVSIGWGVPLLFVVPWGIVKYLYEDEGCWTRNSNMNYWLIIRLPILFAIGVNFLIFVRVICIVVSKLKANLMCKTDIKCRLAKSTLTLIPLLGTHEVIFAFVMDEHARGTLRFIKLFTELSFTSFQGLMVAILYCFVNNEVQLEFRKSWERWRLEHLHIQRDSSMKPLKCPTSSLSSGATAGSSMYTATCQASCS


Key:
human GLP-1R [1] = target: human GLP-1R (human, UniProt P43220); test: cell-based or functional assay
[2] = target: T1, human GIPR (human), P48546
[3] = target: T2, human GLP-1R (human), P43220
[4] = target: T1, human GIPR (human), P48546; test: [125I]GIP competition, human GIPR VLP
human GLP-1R [5] = target: human GLP-1R (human, UniProt P43220); test: cell-based or functional assay; remark: listed apart in the source

Binder | Agonist activity (EC50, M) (human GLP-1R [1]) | Agonist activity (EC50, M) [2] | Agonist activity (EC50, M) [3] | IC50 [4] | Agonist activity (EC50, M) (human GLP-1R [5])
[NMeY][Aib]EGTFISDYSIALDRIAQQDFVNWLLAQRPSSGAPPPSR-NH2 (N-terminus assumed; SMILES CC[C@H](C)[C@H](NC(=O)[C@H](CCCNC(=N)N)NC(=O)[C@H](CC(=O)O)NC(=O)[C@H](CC(C)C)NC(=O)[C@H](C)NC(=O)[C@@H](NC(=O)[C@H](CO)NC(=O)[C@H](Cc1ccc(O)cc1)NC(=O)[C@H](CC(=O)O)NC(=O)[C@H](CO)NC(=O)[C@@H](NC(=O)[C@H](Cc1ccccc1)NC(=O)[C@@H](NC(=O)CNC(=O)[C@H](CCC(=O)O)NC(=O)C(C)(C)NC(=O)[C@H](Cc1ccc(O)cc1)NC)[C@@H](C)O)[C@@H](C)CC)[C@@H](C)CC)C(=O)N[C@@H](C)C(=O)N[C@@H](CCC(N)=O)C(=O)N[C@@H](CCC(N)=O)C(=O)N[C@@H](CC(=O)O)C(=O)N[C@@H](Cc1ccccc1)C(=O)N[C@H](C(=O)N[C@@H](CC(N)=O)C(=O)N[C@@H](Cc1c[nH]c2ccccc12)C(=O)N[C@@H](CC(C)C)C(=O)N[C@@H](CC(C)C)C(=O)N[C@@H](C)C(=O)N[C@@H](CCC(N)=O)C(=O)N[C@@H](CCCNC(=N)N)C(=O)N1CCC[C@H]1C(=O)N[C@@H](CO)C(=O)N[C@@H](CO)C(=O)NCC(=O)N[C@@H](C)C(=O)N1CCC[C@H]1C(=O)N1CCC[C@H]1C(=O)N1CCC[C@H]1C(=O)N[C@@H](CO)C(=O)N[C@@H](CCCNC(=N)N)C(N)=O)C(C)C) [Compound 59] | > 1e-06 M |  |  |  | 
Y[Aib]EGTFISDYSK([PEG(2)-C20 diacid])ALDRIAQQNFVNW[Iva]LAQRPSSGAPPPS (ends and bridges not checked) [Compound 381] |  | 4.4e-11 M | > 1e-06 M | 8.7 nM | 
Y[Aib]EGTFISDYSIALDRK([PEG(2)-C20 diacid])AQQNFVNW[Iva]LAQRPSSGAPPPS (not fully specified (C-terminus); ends and bridges not checked) [Compound 404] |  | 1.1e-10 M | > 1e-06 M | 24 nM | 
Y[Aib]EGTFISDYSIALDRK([PEG(2)-C20 diacid])AQQNFVNW[Iva]LAQR (ends and bridges not checked) [Compound 391] |  | 1.1e-10 M | > 1e-06 M | 34 nM | 
Y[Aib]EGTFISDYSIALDRK([PEG(2)-C20 diacid])AQQNFVNW[Iva]LAQRPSSGAPPPS (not fully specified (C-terminus); ends and bridges not checked) [Compound 408] |  | 4.8e-10 M | > 1e-06 M | 84 nM | 
Y[Aib]EGTFISDYSIAK([PEG(2)-C20 diacid])DRIAQQNFVNW[Iva]LAQRPSSGAPPPS (ends and bridges not checked) [Compound 383] |  | 4.3e-11 M | > 1e-06 M | 10 nM | 
Y[Aib]EGTVVSLYSK([PEG3′-PEG3′-γGlu-C20 diacid])[Aib]LDRQAQ[Aib]EFVK(Ac)WLLRGGPSSGAPPPS (ends and bridges not checked) [Compound 326] |  |  |  | 15 nM | 
[NMeY][Aib]EGTFISDYSIALDR[Aib]HQ[Aib]NFVNW[Iva]LAQRPSSGAPPPSR-NH2 (N-terminus assumed; SMILES CC[C@H](C)[C@H](NC(=O)[C@H](CO)NC(=O)[C@H](Cc1ccc(O)cc1)NC(=O)[C@H](CC(=O)O)NC(=O)[C@H](CO)NC(=O)[C@@H](NC(=O)[C@H](Cc1ccccc1)NC(=O)[C@@H](NC(=O)CNC(=O)[C@H](CCC(=O)O)NC(=O)C(C)(C)NC(=O)[C@H](Cc1ccc(O)cc1)NC)[C@@H](C)O)[C@@H](C)CC)C(=O)N[C@@H](C)C(=O)N[C@@H](CC(C)C)C(=O)N[C@@H](CC(=O)O)C(=O)N[C@@H](CCCNC(=N)N)C(=O)NC(C)(C)C(=O)N[C@@H](Cc1c[nH]cn1)C(=O)N[C@@H](CCC(N)=O)C(=O)NC(C)(C)C(=O)N[C@@H](CC(N)=O)C(=O)N[C@@H](Cc1ccccc1)C(=O)N[C@H](C(=O)N[C@@H](CC(N)=O)C(=O)N[C@@H](Cc1c[nH]c2ccccc12)C(=O)N[C@@](C)(CC)C(=O)N[C@@H](CC(C)C)C(=O)N[C@@H](C)C(=O)N[C@@H](CCC(N)=O)C(=O)N[C@@H](CCCNC(=N)N)C(=O)N1CCC[C@H]1C(=O)N[C@@H](CO)C(=O)N[C@@H](CO)C(=O)NCC(=O)N[C@@H](C)C(=O)N1CCC[C@H]1C(=O)N1CCC[C@H]1C(=O)N1CCC[C@H]1C(=O)N[C@@H](CO)C(=O)N[C@@H](CCCNC(=N)N)C(N)=O)C(C)C) [Compound 117] | > 1e-06 M |  |  |  | 
Y[Aib]EGTFISDYSK([PEG(2)-C20 diacid])ALDRIAQQNFVNW[Iva]LAQR (ends and bridges not checked) [Compound 387] |  | 5.9e-11 M | > 1e-06 M | 8.2 nM | 
Y[Aib]EGTVVSLYSK([PEG3′-PEG3′-C20 diacid])[Aib]LDRQAQ[Aib]EFVK(Ac)WLLRGGPSSGAPPPS (ends and bridges not checked) [Compound 324] |  |  |  | 7.8 nM | 
YXEGTXISDYSIXXDRXAQXNFVNWXLAQRPSSGAPPPS (MeTyr at 1; Aib at 2, 13, 17, 20; Iva at 6, 26; Lys(Eda-GGGGG-) at 14; C-terminal amide (-NH2)) [Compound 341] |  |  |  |  | > 1e-06 M
YXEGTXISDYSIXXDRXAQXNFVNWXLAQRPSSGAPPPS (Me-Tyr at 1; Aib at 2, 13, 17, 20; Iva at 6, 26; Lys(Eda-GGGGGG-) at 14; C-terminal amide (-NH2) (as printed for SEQ ID NO: 355 in the 1st table)) [Compound 342] |  |  |  |  | > 1e-06 M
YXEGTXISDYSIXLDRXAQXNFVNWXLAQRPSSGAPPPS (MeTyr at 1; Aib at 2, 13, 20; Iva at 6, 26; Lys(Oda-GGGGG-) at 17; C-terminal amide (-NH2)) [Compound 349] |  |  |  |  | > 1e-06 M
Y[Aib]EGTFISDYSIALDRK([PEG(2)-C20 diacid])AQQNFVNW[Iva]LAQRPSSGAPPPS (ends and bridges not checked) [Compound 385] |  | 8.3e-11 M | > 1e-06 M | 15 nM | 
Y[Aib]EGTFISDYSIAK([PEG(2)-C20 diacid])DRIAQQNFVNW[Iva]LAQR (ends and bridges not checked) [Compound 389] |  | 8e-11 M | > 1e-06 M | 19 nM | 
YXEGTXISDYSIALDRXAQXNFVNWLLAQRPSSGAPPPSR (N-methyl on Tyr 1 (Me-Tyr); Aib at 2, 17, 20; Iva at 6; C-terminal amide (NH2)) [Compound 104] | > 1e-06 M |  |  |  | 
YXEGTXISDYSIXLDRXAQXNFVNWXLAQRPSSGAPPPSR (N-methyl on Tyr 1 (Me-Tyr); Aib at 2, 13, 17, 20; Iva at 6, 26; C-terminal amide (NH2)) [Compound 113] | > 1e-06 M |  |  |  | 
Y[Aib]EGTVVSLYSI[Aib]LDKQAQ[Aib]EFVKW[Aib]LKGGPSSGAPPPSK-NH2 (N-terminus assumed; SMILES CC[C@H](C)[C@H](NC(=O)[C@H](CO)NC(=O)[C@H](Cc1ccc(O)cc1)NC(=O)[C@H](CC(C)C)NC(=O)[C@H](CO)NC(=O)[C@@H](NC(=O)[C@@H](NC(=O)[C@@H](NC(=O)CNC(=O)[C@H](CCC(=O)O)NC(=O)C(C)(C)NC(=O)[C@@H](N)Cc1ccc(O)cc1)[C@@H](C)O)C(C)C)C(C)C)C(=O)NC(C)(C)C(=O)N[C@@H](CC(C)C)C(=O)N[C@@H](CC(=O)O)C(=O)N[C@@H](CCCCN)C(=O)N[C@@H](CCC(N)=O)C(=O)N[C@@H](C)C(=O)N[C@@H](CCC(N)=O)C(=O)NC(C)(C)C(=O)N[C@@H](CCC(=O)O)C(=O)N[C@@H](Cc1ccccc1)C(=O)N[C@H](C(=O)N[C@@H](CCCCN)C(=O)N[C@@H](Cc1c[nH]c2ccccc12)C(=O)NC(C)(C)C(=O)N[C@@H](CC(C)C)C(=O)N[C@@H](CCCCN)C(=O)NCC(=O)NCC(=O)N1CCC[C@H]1C(=O)N[C@@H](CO)C(=O)N[C@@H](CO)C(=O)NCC(=O)N[C@@H](C)C(=O)N1CCC[C@H]1C(=O)N1CCC[C@H]1C(=O)N1CCC[C@H]1C(=O)N[C@@H](CO)C(=O)N[C@@H](CCCCN)C(N)=O)C(C)C) [Compound 42] | > 1e-06 M |  |  |  | 
